Reference: the RNAGym collection of RNA variant scans (doi:10.7554/elife.80360)

B1: Twister Ribozyme (parent)
chain: AACACUGCCAAUGCCGGUCCCAAGCCCGGAUAAAAGUGGAGGGGGCGG

Variants of: B1
Experiment: self-cleavage, relative activity (ratio to wild type); higher = more cleavage; co-transcriptional

Variant	self-cleavage
AACCCUGCCAAUGUCGGUCCCAAGCCCGGAUAAAAGUGGAGGGGGCGG [A4C C14U]	0.257
AACACUGCCAAUGCCGGUCCCAAGCCCGUAUAAAAGUGGAAGGGGCGG [G29U G41A]	0.422
AACACUGCCAAUGCCGGGCCCAAGCCCCGAUAAAAGUGGAGGGGGCGG [U18G G28C]	0.102
AAUACUGCCAAUGCCGGUCCCAAGCCCGGAGAAAAGUGGAGGGGGCGG [C3U U31G]	0.445
AAUACUGCCCAUGCCGGUCCCAAGCCCGGAUAAAAGUGGAGGGGGCGG [C3U A10C]	0.61
AACAGUGCCAAUGCCGGUCCCACGCCCGGAUAAAAGUGGAGGGGGCGG [C5G A23C]	0.0471
AACACUGCGAAUGCCGGUCCCUAGCCCGGAUAAAAGUGGAGGGGGCGG [C9G A22U]	0.187
AACACUGCCAAUGCCGGCCCCAAGCCCGGAUAAAAGUGAAGGGGGCGG [U18C G39A]	0.111
AACACUGCCAAUGCCGGUCCCAAGCCCGGAUAAAAGUGGAGGGCGCGC [G44C G48C]	0.225
AACACUGCCAAUGCCGGACCCAAGCCCGAAUAAAAGUGGAGGGGGCGG [U18A G29A]	0.41
CACACUGCCAAUGCCGGUCCCAAGCCCGGAUAAAAGUGGAGGGGCCGG [A1C G45C]	0.176
AACACUGCCAAUGCCGGUCCCAAGCACGGAUAAAAGUGGAGGGUGCGG [C26A G44U]	0.456
AACACUGCCAAUGCCGGUCCCAAGCCCGUAUAAAAGUGGAGUGGGCGG [G29U G42U]	0.261
AACACUGCCAAUGCCGGUCCCAAGCCCGGAUAGAAGUGGAGAGGGCGG [A33G G42A]	0.215
AACACUCCCAAUGCCGGUCCCAAGCCCUGAUAAAAGUGGAGGGGGCGG [G7C G28U]	0.093
AACACUGCCAAUGCCGGUCCCAAGCCCGAGUAAAAGUGGAGGGGGCGG [G29A A30G]	0.892
AACAUUGCCAAUGCCGGUCCCAAGCGCGGAUAAAAGUGGAGGGGGCGG [C5U C26G]	0.0996
AACACUGCCAAUGCCGGUCCCAAGCCGGGAGAAAAGUGGAGGGGGCGG [C27G U31G]	0.0669
AACCCUGCCAAUGCCGGCCCCAAGCCCGGAUAAAAGUGGAGGGGGCGG [A4C U18C]	0.0605
AACACUGCCGAUGUCGGUCCCAAGCCCGGAUAAAAGUGGAGGGGGCGG [A10G C14U]	1.02
AACACUGGCAAUGGCGGUCCCAAGCCCGGAUAAAAGUGGAGGGGGCGG [C8G C14G]	0.0524
AACACUGGCAAUGACGGUCCCAAGCCCGGAUAAAAGUGGAGGGGGCGG [C8G C14A]	0.495

Variant	self-cleavage
AACACUGCCAAUGCCGGUCCCAAGCCCGGAAAAAAGUGGAGGGAGCGG [U31A G44A]	0.689
AACACUGCCAAUGCCGGUCCCAAGCCCGGAAAACAGUGGAGGGGGCGG [U31A A34C]	0.536
AACACUGCCAAUGCCGGUCCCAAGCCCGGUUAUAAGUGGAGGGGGCGG [A30U A33U]	0.873
AACACUGCCAAUGCCGGUCCCAAGCCCGGUUAGAAGUGGAGGGGGCGG [A30U A33G]	1.03
AACACUGCCAAUGCCGGUCCCAAGCCCGGAUAAGAGAGGAGGGGGCGG [A34G U37A]	0.444
AACACUGCCAAUGCCGGUCGCAAGCCCGGAUAAAAGUGGAGGGGUCGG [C20G G45U]	0.0778
AACACUGCCAAUGCCGGUCCCAUGCCCGGAUAUAAGUGGAGGGGGCGG [A23U A33U]	0.307
AACACUGCCAGUGCCGGUCCCAAGCCCGGAUAUAAGUGGAGGGGGCGG [A11G A33U]	0.955
AACACUGCCAAUGCCGGUCCCAAGCCCUGUUAAAAGUGGAGGGGGCGG [G28U A30U]	0.985
AACUUUGCCAAUGCCGGUCCCAAGCCCGGAUAAAAGUGGAGGGGGCGG [A4U C5U]	0.136
AACACUGCCAAUGCCGGUCCCAAGCCCGGAUAUAAGUUGAGGGGGCGG [A33U G38U]	0.815
AACACUGCCAAUGCCGGUGCCAAGCCCUGAUAAAAGUGGAGGGGGCGG [C19G G28U]	0.212
AACACUGCCAAUGCCUGUCCCAAGCCCGAAUAAAAGUGGAGGGGGCGG [G16U G29A]	0.946
AACACUGCCAAUGCCGGUCCCAAGCCCGGAUAAAAGUGGAAGGGGGGG [G41A C46G]	0.429
AACAAUGCCAAUGCGGGUCCCAAGCCCGGAUAAAAGUGGAGGGGGCGG [C5A C15G]	0.0768
AACACUGCCAAUGCCGGUCCCAAGCCCGGAAAAAAGUGGAGGUGGCGG [U31A G43U]	0.233
AACACUGCCAAUGCCGGUCCCAAGCCCGGAUAAAAGUGGAGGGACCGG [G44A G45C]	0.535
AACACUGCCACUGCCGGUCCCAAGCCCGGAUAAAAUUGGAGGGGGCGG [A11C G36U]	0.8
AACACUGCAAAUGCCGGUCCCAAGCCAGGAUAAAAGUGGAGGGGGCGG [C9A C27A]	0.103
AACACUGCGAAUGCCGGUCCCAAGCCCGGAUAAAAGUGGAGGCGGCGG [C9G G43C]	0.132
AACACUGCUAAUGCCGGUCCCAAGCCCGGAUAAAAGUGGAGGGGGAGG [C9U C46A]	0.549
AAUACUGCCAAUGCCGGUCCCAAGCCCGGAUAAAAGUGGCGGGGGCGG [C3U A40C]	0.0947

Variant	self-cleavage
AACACUGCCAAUGCCGGUCCCGAGCCCGGAUAAAAGUCGAGGGGGCGG [A22G G38C]	0.0945
AACGCUGCCAAUGCCGGUCCCAAGCCCGGAUAAAAGUGGAGGGGGUGG [A4G C46U]	0.775
AACACUGCCAAUGCUGGUCCCAAGCCCGGAUAAAAGUGGAGGGGGCGU [C15U G48U]	0.987
AAGACUGCCAAUGCCGGUUCCAAGCCCGGAUAAAAGUGGAGGGGGCGG [C3G C19U]	0.265
AACACUGCCAAUGCCGGUCCCAAGCCCAGAUAAAAGUGGAGGGGGCGU [G28A G48U]	0.778
AACACUGCCAAUGCCGGUACCAAGCCCGGAUAAAAGUGGAGGGGGUGG [C19A C46U]	0.304
GACACUGCCAAUGCCGGUCCCAAGCCCGGCUAAAAGUGGAGGGGGCGG [A1G A30C]	0.198
AACACUGCCAGUGCCGGUCCCAAGCCCGGAUAAAAGUGGAGGGGUCGG [A11G G45U]	0.567
AACACUGCCAAUGCCGGUCCCAAGCCCGGAUAAAAGUGAAGGUGGCGG [G39A G43U]	0.134
AACACUGCCAAUGCCGGUGCCAUGCCCGGAUAAAAGUGGAGGGGGCGG [C19G A23U]	0.11
AACACUGCCAAUGCCGGUCCCAAGCCCGGAUAAAAGUGGAGGAGUCGG [G43A G45U]	0.305
AACGCUGCCAAUGCCGGUCGCAAGCCCGGAUAAAAGUGGAGGGGGCGG [A4G C20G]	0.128
AACACUGCCGAUGCCGGUCCCAAGCCCGUAUAAAAGUGGAGGGGGCGG [A10G G29U]	1.12
AACACGGCCAAUGCCGGUCCAAAGCCCGGAUAAAAGUGGAGGGGGCGG [U6G C21A]	0.0289
AACACUGCCAAUGCGGGUCCCAAGCCCGGAUACAAGUGGAGGGGGCGG [C15G A33C]	0.0859
AACACUGCCAAUGCCGGUCCCAAGCCGGGAUAAAAGUGGAAGGGGCGG [C27G G41A]	0.0929
AACACUGCCAAUGCCGGUCCCAACCCCGGAUAAAAGUGUAGGGGGCGG [G24C G39U]	0.0664
AACACUGCCAAUGCCGGUCCCAACCCAGGAUAAAAGUGGAGGGGGCGG [G24C C27A]	0.121
AACACUGCCAAUGCCGGUCCCAAGCCCGGAUAAUAGUGGAGGGGGCAG [A34U G47A]	0.601
AACACUGCCAAUGCCGGUCCCAAGCCCGGAUAAACGUGGAGGGGGCUG [A35C G47U]	0.932
AACACUGCCAAUGCCGGUCCCAAGCCCGGAUAAAAGUGGAGGGUGCGG [G44U]	0.974
AACACUGCCAAUGCCGGUCCCAAGCGCGGAUAAAAGUGGAGGUGGCGG [C26G G43U]	0.138

Variant	self-cleavage
AACACUGGCUAUGCCGGUCCCAAGCCCGGAUAAAAGUGGAGGGGGCGG [C8G A10U]	0.429
ACCACUGCCAAUGCCGGUCCCAGGCCCGGAUAAAAGUGGAGGGGGCGG [A2C A23G]	0.06
AACACUGCCAAUGCCGGUCCCAAGCCUGGAUAAAGGUGGAGGGGGCGG [C27U A35G]	0.271
AACACUGCCAAUGACGGUCCCUAGCCCGGAUAAAAGUGGAGGGGGCGG [C14A A22U]	0.657
AACACUGCCAAUGCCGGUCCAAAGCCCGGAUAAAAGUGGAGGGGCCGG [C21A G45C]	0.109
AACACUGCCAAUGCCGGUCCCAAGCCCGGCUAAAAGUAGAGGGGGCGG [A30C G38A]	0.649
AACACUGCCAAUGCCGGUGCCAAGCCCGGAUAAAAGUUGAGGGGGCGG [C19G G38U]	0.0929
CACACUGCCAAUGCCGGUCCCAAGCCCGGGUAAAAGUGGAGGGGGCGG [A1C A30G]	0.206
GACACUGCCAGUGCCGGUCCCAAGCCCGGAUAAAAGUGGAGGGGGCGG [A1G A11G]	0.414
AACACUGCCAAUGCCGGUACCAAGCCCGGAAAAAAGUGGAGGGGGCGG [C19A U31A]	0.219
AACACUGCCAAUGCCGGUCUCAAGCCCGGAUAAAAGGGGAGGGGGCGG [C20U U37G]	0.702
AACACUGCCAAUGCCGUUCCCAAGCCCGGAUAAAAGUGGAGUGGGCGG [G17U G42U]	0.126
AACACUGCCAAUGCCGGUCCUAAGCCCGGAUAAAAGUGGAGGUGGCGG [C21U G43U]	0.106
AACACUGCCGAUGCCGGUCCCAGGCCCGGAUAAAAGUGGAGGGGGCGG [A10G A23G]	0.879
AACACUGCCAAUGCCGGUCCCAAGCCAUGAUAAAAGUGGAGGGGGCGG [C27A G28U]	0.37
AUCACUGCCAAUGCCGGUCCCAAGCCCGGAUAAAAGUGGAGGGGGAGG [A2U C46A]	0.513
AACACUGCCAAUGCCGGUCCCAAGCCCGGAUAAAAGUGGAUGGGGUGG [G41U C46U]	0.68
AACACUGCCAACGCCGGUCCCAAGCCCGGAUAAAAGUGGAGGGGUCGG [U12C G45U]	0.973
UACAAUGCCAAUGCCGGUCCCAAGCCCGGAUAAAAGUGGAGGGGGCGG [A1U C5A]	0.0587
AACACUGCCAAUGCCCGUCCCAAGCCCGGAUAAAAGUGGAGGGGGAGG [G16C C46A]	0.693
AACACUGCCUAUGCCGGCCCCAAGCCCGGAUAAAAGUGGAGGGGGCGG [A10U U18C]	0.506
AACUCUGCCAAUGCCGGUCCCAAGCUCGGAUAAAAGUGGAGGGGGCGG [A4U C26U]	0.0595

Variant	self-cleavage
AACACUGCCAAUGCCGGUCCCGAGCCCGGAUAAAAGUGGAGGGGUCGG [A22G G45U]	0.143
AACACUGCCAAUGCCGGUCCGAAGCCCGGAUAAAAGUGGAGGGGGGGG [C21G C46G]	0.113
AACACUGCCAACGCCGGUCCCUAGCCCGGAUAAAAGUGGAGGGGGCGG [U12C A22U]	0.805
AACACUGCCAAUGCCGGUCCCAAGCCCGGAUAAAAGUGGGGGUGGCGG [A40G G43U]	0.136
AACACCGCCAAUGCCGGUCCCAAGCCCGGAUAAAAGAGGAGGGGGCGG [U6C U37A]	0.131
AACACUGCCAAUGCCGGUCCCAAGCCCGGAUUAGAGUGGAGGGGGCGG [A32U A34G]	0.869
AACACUGCCAAUGCCGGUCCCAAGACCGGAUAAAAGUGCAGGGGGCGG [C25A G39C]	0.0833
AACACUGCCAAUGCCGGUCCCAAGCCCGGAUAAAAGUUGAGGGUGCGG [G38U G44U]	0.915
AACACUGCCAAUGCGGGUCCCAAGCCCGGAUAAAAGUGGAGGGGGCGA [C15G G48A]	0.0877
AACACUGCCAAUGCCGGUCCCAAGCCCGGCUAAAAGUGGAGUGGGCGG [A30C G42U]	0.0949
AAUACUGCCAAUGCCGGUCCCAAGCCCGGAUAAAAGUGGAGGGUGCGG [C3U G44U]	0.436
AACACUGCCAAUGCCGGUCCCAAGCCCGGAGAACAGUGGAGGGGGCGG [U31G A34C]	0.477
AACACUGCCAAUUCCGGUCCCAAGCCCGGAUAAAAGUGGAUGGGGCGG [G13U G41U]	0.104
AACACUGCCAAUGACAGUCCCAAGCCCGGAUAAAAGUGGAGGGGGCGG [C14A G16A]	0.641
AACACUGCCAAUGACGGUCCCAAGCCCGGAUAAAAGUCGAGGGGGCGG [C14A G38C]	0.861
AACACUGCCAAUGCCGGUCCCAAGCUCGGAUAAAACUGGAGGGGGCGG [C26U G36C]	0.129
AACCCUGCCAAUGCCGGUCCCAAGCCCGGAGAAAAGUGGAGGGGGCGG [A4C U31G]	0.177
AACACUGUCAAUGCCGGUCCCAAGCCCGGAUAAAAGUGGAGGGGGAGG [C8U C46A]	0.5
AAUACUGCCAAUGCCGGUCCCAAGGCCGGAUAAAAGUGGAGGGGGCGG [C3U C25G]	0.0982
UACACUGCCAAUGCCGGUCCCAAGCCCGGAUAAAAGUGGAGGGGGAGG [A1U C46A]	0.0731
